Experimental data: US20170145092A1 (CHINA SYNTHETIC RUBBER, published 2017)

B1: KFCC-GY4 monoclonal antibody (antibody, V domains shown)
VH: EVQLQQSGAEFVRSGASVKLSCTASGFNIKDYYIHWVKQRPEQGLEWIGWIDPENGDIEYAPKFQGKATMTADTSSNTAYLQFSSLTSEDTAVYYCLYQEGSWGQGTTLTVSS
VL: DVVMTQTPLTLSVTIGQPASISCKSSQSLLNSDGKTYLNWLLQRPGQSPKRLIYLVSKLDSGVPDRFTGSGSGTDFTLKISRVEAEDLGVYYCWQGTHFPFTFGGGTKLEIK
notes: Mouse monoclonal antibody from a hybridoma, purified by Protein G; also called KFCC-GY4 mAb; KFCC-GY4 monoclonal anti-PLVAP antibody
B2: KFCC-GY5 monoclonal antibody (antibody, V domains shown)
VH: QVQLQQPGAELVRPGASVKLSCKASGYTFTSNYINWVKQRPGQGLEWIGNIYPSDGFTNYNQKFKDRATLTVDKSSSTAYMQLSSPTSEDSAVYYCTRNFDVWGAGTTVTVSS
VL: DVVMTQTPLSLPVSLGDQASISCRSSQSLVHSNGNTYLQWYLQKPGQSPKLLIYTVSNRFSGVPDRFSGSGSGPDFTLKISRVEAEDLGVYFCSQSTHVPFTFGSGTKLEIK
notes: Mouse monoclonal antibody from a hybridoma, purified by Protein G; also called KFCC-GY5 mAb; KFCC-GY5 monoclonal anti-PLVAP antibody

Target: T1, recombinant PLVAP51-442 protein (human, UniProt Q9BX97 51-442)
T1 construct: also called recombinant PLVAP protein; recombinant human PLVAP protein
T1 sequence: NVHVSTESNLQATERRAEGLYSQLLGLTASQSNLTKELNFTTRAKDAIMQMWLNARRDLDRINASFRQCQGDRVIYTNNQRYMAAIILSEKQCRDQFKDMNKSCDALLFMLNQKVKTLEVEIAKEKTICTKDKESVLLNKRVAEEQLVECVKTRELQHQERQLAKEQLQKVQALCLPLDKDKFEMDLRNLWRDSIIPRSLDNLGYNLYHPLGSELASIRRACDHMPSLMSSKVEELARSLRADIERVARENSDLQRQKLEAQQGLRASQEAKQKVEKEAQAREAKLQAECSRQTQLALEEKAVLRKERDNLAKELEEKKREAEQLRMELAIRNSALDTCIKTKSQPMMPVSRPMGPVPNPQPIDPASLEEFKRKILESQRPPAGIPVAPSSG
Assay: ANTQ300 quartz crystal microbalance
Method: Binding affinities of KFCC-GY4 and KFCC-GY5 anti-PLVAP monoclonal antibodies were measured at the ANT Technology Co., Ltd. (Taipei, Taiwan) using ANTQ300 quartz crystal microbalance technology (Lin S., et al. J Immunol Methods 239:121-124 (2000)).

Binder	Kd
B1	60 nM
B2	41 nM
